One molecule from patent US20210340232A1, “MONOCLONAL ANTIBODIES AGAINST HUMAN DICKKOPF3 AND USES THEREOF” (Board of Regents, The University of Texas System, priority 2018, published 2021) can be followed below.

One assay addresses T1, DKK3 (Homo sapiens, UniProt Q9UBP4).
T1 construct: purchased R&D
Briefly: Cell surface binding of His-tagged rhDKK3 by flow cytometry. Particulars: BxPC3 or L3.6p1 cells, rhDKK3 10 μg/ml, JM6-6-1 70 μg/ml. The method, then:
FIGS. 11A-C. DKK3 expression in autochthonous model of PDAC and effects of DKK3 mAb on cell surface binding of DKK3 and orthotopic model. (FIG. 11A) DKK3 expression was measured by qPCR in pancreatic tumors from P48-Cre; Kras LSL-G12D;Trp53fl/fl and P48-Cre; Kras LSL-G12D;Trp53fl/+ mice that are either wild type DKK3 or heterozygous or homozygous DKK3-null. Relative expression of DKK3 mRNA in DKK3+/− hetero mice is 53% of DKK3^+/+ mice. (FIG. 11B) DKK3 cell surface binding was assessed by incubating BxPC3 or L3.6p1 cells with His-tagged rhDKK3 (10 μg/ml) with or without JM6-6-1 (70 μg/ml) and positive cells were sorted by flow cytometry. (FIG. 11C) Mice bearing orthotopic BxPC3 tumors were treated with DKK3 mAb JM6-6-1 (5 mg/kg i.p. once every 5 days). Overall tumor progression was measured every 3-4 days by IVIS imaging.
Binding assay. Cell surface binding of DKK3 was performed using flow cytometry. In brief, BxPC3 or L3.6p1 cells (0.5×10^6) were incubated for 30 min with His-labeled rhDKK3 (10 μg/mL) with or without JM6-6-1 (70 μg/mL). After washing with binding buffer (3% BSA in PBS), cells were stained with 1:100 anti-His antibody (abCam) for 30 min and followed by staining with secondary antibody conjugated with Dylight488 for 20 min. The cells were fixed with 2% paraformaldehyde and were subjected to fluorescent signal detection by BD FACSCalibur.
(In general: In flow cytometry, cells or beads pass a laser one at a time.)

Assay [1] concerns BxPC3 cells. Briefly: BxPC3 resistance to gemcitabine, MTS proliferation assay. The class given is cell-based, human. Particulars: BxPC3, gemcitabine 100 μM, HPSC-CM 10 μg/ml, 6 days. The method, then: (§1) HPSCs and BxPC3 cells were treated with DKK3 mAb clones JM6-6-1 and JM8-12-1 or isotype control mAb or PBS. (FIGS. 5A-B) HPSC apoptosis and migration as measured by FACS and Transwell migration assay at 48 hours. (FIG. 5C) BxPC3 migration in response to rhDKK3 10 μg/ml as measured by Transwell migration assay at 48 hours. (FIG. 5D) BxPC3 resistance to gemcitabine 100 μM as measured by MTS proliferation assay at 6 days. HPSC-CM, pancreatic stellate cell conditioned media, 10 μg/ml. The orthotopic co-injection BxPC3+ HPSC model of PDAC was used to test the efficacy of DKK3 mAb clones JM6-6-1 or JM8-12-1 (5 mg/kg i.p. once every 5 days). (FIG. 5E) Overall tumor progression was measured every 3-4 days by IVIS imaging. (FIG. 5F) Metastatic tumors in the peritoneal cavity after removal of the primary pancreatic tumor are shown by IVIS imaging. (FIG. 5G) Kaplan Meier survival curve showing mice treated with DKK3 mAb clone JM8-12 (right-most line), control mAb (middle line), or PBS (left-most line). (FIG. 5H) KPC mice (P48-Cre; Kras LSL-G12D;Trp53fl/fl) with either wild type DKK3 (solid lines) or deficient in DKK3 (“DKK3-KO,” dashed lines) were treated with DKK3 mAb JM6-6-1 (5 mg/kg i.p. once every 5 days), PBS or control mAb. […]
(§2) Cell-based assays. Cell proliferation was measured by the MTS assay (Promega, Madison, Wis.). […]
In general terms: Formazan colour is commonly taken as a measure of viable cells.

Assay [2] has as its system BxPC3 cells. Briefly: BxPC3 Transwell migration in response to rhDKK3. The class given is cell-based, human. Particulars: BxPC3, rhDKK3 10 μg/ml, 48 hours. The method, then: as §1, §2

T1 sequence (Q9UBP4 22-350): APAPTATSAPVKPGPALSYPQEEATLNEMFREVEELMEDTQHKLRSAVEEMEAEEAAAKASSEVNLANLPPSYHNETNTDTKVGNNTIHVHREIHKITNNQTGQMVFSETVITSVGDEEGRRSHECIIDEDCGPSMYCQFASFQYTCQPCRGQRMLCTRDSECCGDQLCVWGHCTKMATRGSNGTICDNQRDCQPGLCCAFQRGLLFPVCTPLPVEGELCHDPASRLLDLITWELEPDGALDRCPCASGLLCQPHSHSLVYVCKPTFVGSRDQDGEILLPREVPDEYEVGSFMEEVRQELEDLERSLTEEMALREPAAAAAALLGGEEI

B1: JM6-6-1: monoclonal antibody against human DKK3; heavy chain variable SEQ ID NO: 19, light chain variable SEQ ID NO: 20 (antibody, V domains shown)
VH: EVKLVESGGGLVKPGGSLKLSCAASGFTFTIEYMAWIRQTPEKRLEWVASISSGGDDIYYADNVKGRFTISRDNAKNTLYLQMSSLKSEDTAIYYCSRSLSDWGQGTTLTVSSAKTTPPSDYPLA
VL: MTQTPLSLPVSLGDQASISCRSSQSILHSNGHTYLEWYLQKPGQSPKLLIYKVSNRFSGVPDRFSGSGSGTDFTLKISRVEAEDLGVYYCFQGSHVPFTFGSGTKLEIERADAAQ
As to B1, the “blocking of rhDKK3 binding to PDAC cells” value in the assay with DKK3 is “effective in blocking binding of rhDKK3 to PDAC cells”. Besides, the “effect on DKK3-mediated chemoresistance to gemcitabine” value in the assay with BxPC3 cells [1] is recorded as “abrogated the DKK3-mediated induction of chemoresistance to gemcitabine”. The “effect on DKK3-mediated induction of migration” value in the assay on BxPC3 cells [2] is on record as “reverse the DKK3-mediated induction of migration”.
